B1: unnamed (protein)
chain 1: EVQLVQSGAEVKKPGESLRISCKGSGYSFSTYWISWVRQMPGKGLEWMGKIYPGDSYTNYSPSFQGQVTISADKSISTAYLQWSSLKASDTAMYYCTRGVGLFDYWGQGTLVTVSS
chain 2: SYELTQPPSVSVSPGQTASITCSGDNIGDQYAHWYQQKPGQSPVLVIYQDKNRPSGIPERFSGSNSGNTATLTISGTQAMDEADYYCATYTGFGSLAVFGGGTKLTVL
B2: unnamed (protein)
chain 1: B1 chain 1 with T31S, T97A, V100Y
chain 2: B1 chain 2
B3: unnamed (protein)
chain 1: B1 chain 1 with S28T, T31N, T97A, V100Y
chain 2: B1 chain 2
B4: unnamed (protein)
chain 1: B1 chain 1 with S28T, T31S, V100Y
chain 2: B1 chain 2
B5: unnamed (protein)
chain 1: B1 chain 1 with S28T, T31D, T97A, V100Y, L102I
chain 2: B1 chain 2
B6: unnamed (protein)
chain 1: B1 chain 1 with S28T, T31N, T97A, V100Y, L102I
chain 2: B1 chain 2
B7: unnamed (protein)
chain 1: B1 chain 1 with T97A, V100W
chain 2: B1 chain 2
B8: unnamed (protein)
chain 1: B1 chain 1 with T97S, V100Y, L102I
chain 2: B1 chain 2
B9: unnamed (protein)
chain 1: B1 chain 1 with S28T, T31D, T97A, V100Y
chain 2: B1 chain 2
B10: unnamed (protein)
chain 1: B1 chain 1 with T31S, T97A, V100T
chain 2: B1 chain 2
B11: unnamed (protein)
chain 1: B1 chain 1 with T31N, T97A, V100Y
chain 2: B1 chain 2
B12: unnamed (protein)
chain 1: B1 chain 1 with T97A, V100H, L102V
chain 2: B1 chain 2
B13: unnamed (protein)
chain 1: B1 chain 1 with V100T, L102I
chain 2: B1 chain 2
B14: unnamed (protein)
chain 1: B1 chain 1 with S28T, T31S, T97A, V100Y
chain 2: B1 chain 2
B15: unnamed (protein)
chain 1: B1 chain 1 with S28T, T31S, D55N, T97A, V100D, L102V
chain 2: B1 chain 2
B16: unnamed (protein)
chain 1: B1 chain 1 with T97A, V100I, L102V
chain 2: B1 chain 2
B17: unnamed (protein)
chain 1: B1 chain 1 with T97A, V100W, L102I
chain 2: B1 chain 2
B18: unnamed (protein)
chain 1: B1 chain 1 with T31S, T97A, V100Y, L102V
chain 2: B1 chain 2
B19: unnamed (protein)
chain 1: B1 chain 1 with V100T
chain 2: B1 chain 2
B20: unnamed (protein)
chain 1: B1 chain 1 with S28T, T31S, V100Y, L102I
chain 2: B1 chain 2

The results in this text go back to the FLAb antibody collection (doi:10.1101/2023.12.08.570889).

Substitutions are numbered along the chain they refer to.

This assay concerns the target TNFRSF9, Q07011. Kind of assay: Kd (SPR).
By Kd is commonly meant the equilibrium constant for the complex coming apart. Higher therefore signals lower affinity. For the molecule B1, the Kd was 141 nM.
The molecule B2 displayed an equilibrium dissociation constant (Kd) of 51.1 nM.
The molecule B3 came in with an equilibrium dissociation constant (Kd) of 117 nM.
As for B4, the figure is 109 nM.
Regarding B5, the Kd came out at 120 nM.
On to B6, for which the Kd turned out to be 86.4 nM.
In turn, B7 came in with a dissociation constant (Kd) of 60.3 nM.
Molecule B8 returned a dissociation constant (Kd) of 39.7 nM.
For B9, the Kd is 84.1 nM.
As for B10, the figure is 150 nM; as for B11, 145 nM; as for B12, 315 nM.
The molecule B13 came in with a dissociation constant (Kd) of 92 nM.
On to B14, for which the dissociation constant Kd came to 86.1 nM.
Take B15: the equilibrium dissociation constant (Kd) was 32.9 nM.
In the case of B16, the dissociation constant Kd was determined as 33.4 nM.
In turn, B17 gave a Kd of 45 nM.
B18 yielded a Kd of 228 nM.
With B19 the figure was 142 nM.
Molecule B20 gave an equilibrium dissociation constant (Kd) of 95.4 nM.
